The source of these data is the supplement of paper PMC10567573.

This series can be described thus: protein stability index of a GFP-peptide fusion (GPS, HEK-293T) (PSI 1-6); higher = more stable.
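Also: lentivirally expressed fusions sorted by FACS into six bins by GFP to DsRed ratio, PSI derived from sequencing read proportions per bin multiplied by bin number.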

B1: DCAF4 WT (peptide)
chain: TTKCVRQYEGHVNEYAYLPLHVHE
For the protein B1, the protein stability index (parent: IOH28737_51, c terminus: a fixed tail appended) is 2.65.

B2: DLC1 WT (peptide)
chain: KRSWEEHVTHWMGQPFNSDDRNTA
With B2, the protein stability index (parent: IOH28890_2, c terminus: a fixed tail appended) was found to be 2.65.

B3: ZNF8 WT (peptide)
chain: VHVIGVEEPSVGASMLFDIREST
As to B3, the protein stability index (parent: IOH28719_96, c terminus: native) was 2.07.

B4: ZNF8 WT (peptide)
chain: SLGRHKRTHTGEKPYTCSVCGKSF
As for B4, under “parent: IOH28719_60, c terminus: a fixed tail appended”, the protein stability index came to 2.55.

B5: FBF1 WT (peptide)
chain: LQRASILDMRRDHEEQLQRLKLLK
In the case of B5, for the setting “parent: IOH27821_117, c terminus: a fixed tail appended”, the protein stability index worked out at 3.67.

B6: FAM116A WT (peptide)
chain: TVHEVDIFRCFCPVFLHSQMLWEL
For the protein B6, the protein stability index (parent: IOH27644_45, c terminus: a fixed tail appended) came out at 3.

B7: JUNB WT (peptide)
chain: FVKALDDLHKMNHVTPPNVSLGAT
As to B7, the protein stability index (parent: IOH27814_24, c terminus: a fixed tail appended) was 1.94.

B8: WASL WT (peptide)
chain: YPPPPPALPSSAPSGPPPPPPSVL
On to B8, for which the protein stability index (parent: IOH28816_58, c terminus: a fixed tail appended) is 4.3.

B9: DCAF4 WT (peptide)
chain: PGIDRPGMLCSFRIPGAWSCAWSL
On to B9, for which the protein stability index (parent: IOH28737_29, c terminus: a fixed tail appended) was determined as 2.84.

B10: ZNF8 WT (peptide)
chain: KPYTCSVCGKSFSRTTCLFLHLRT
Take B10: the protein stability index (parent: IOH28719_62, c terminus: a fixed tail appended) is 2.03.

B11: KRT34 WT (peptide)
chain: YQSYFKTIEELQQKILCAKAENAR
Consider B11, for which the protein stability index (parent: IOH28032_25, c terminus: a fixed tail appended) came out at 1.83.

B12: RPAIN WT (peptide)
chain: ISEYEKSLQFDEKCLSIMLAEWEA
Consider B12, for which the protein stability index (parent: IOH28888_19, c terminus: a fixed tail appended) was 1.85.

B13: CPOX WT (peptide)
chain: HAPTIHFNYRYFEVEEADGNKQWW
B13: the protein stability index (parent: IOH27839_43, c terminus: a fixed tail appended) was found to be 2.33.

B14: OR3A1 WT (peptide)
chain: PMYFFLGNLSVLDVGCISVTVPSM
Turning to B14, the protein stability index (parent: IOH28412_11, c terminus: a fixed tail appended) was 2.98.

B15: DLC1 WT (peptide)
chain: HVTHWMGQPFNSDDRNTACHHGLV
In the case of B15, the protein stability index (parent: IOH28890_3, c terminus: a fixed tail appended) was 2.14.

B16: DLC1 WT (peptide)
chain: AIQGISEKEKAEIEAKEACDWLRA
B16: the protein stability index (parent: IOH28890_74, c terminus: a fixed tail appended) was 4.41.

B17: FBF1 WT (peptide)
chain: YQRPQDSEDMWGDEDFTFGAYQPT
Turning to B17, the protein stability index (parent: IOH27821_46, c terminus: a fixed tail appended) came out at 2.9.

B18: NEUROD6 WT (peptide)
chain: YHSPELTTPPGHGTLDNSKSMKPY
With B18, under “parent: IOH27687_36, c terminus: a fixed tail appended”, the protein stability index was determined as 2.22.

B19: FBF1 WT (peptide)
chain: FGDSPKAEKRQIGDQEGPRPARST
Take B19: the protein stability index (parent: IOH27821_37, c terminus: a fixed tail appended) was found to be 4.98.

B20: FBF1 WT (peptide)
chain: QLQCSPAELQAELLHSQARLAELE
With B20, where the note is “parent: IOH27821_96, c terminus: a fixed tail appended”, the protein stability index worked out at 3.22.

B21: KRT34 WT (peptide)
chain: PTVDLNQVLNETRSQYEALVETNR
As to B21, where the note is “parent: IOH28032_44, c terminus: a fixed tail appended”, the protein stability index came to 3.1.

B22: C6orf223 WT (peptide)
chain: TLARMSRRTRGPVERAAAAAAAAA
As to B22, the protein stability index (parent: IOH28619_19, c terminus: a fixed tail appended) turned out to be 2.35.

B23: ZNF8 WT (peptide)
chain: RTHTGEKPYTCSVCGKSFSRTTCL
For the protein B23, where the note is “parent: IOH28719_61, c terminus: a fixed tail appended”, the protein stability index was 2.43.

B24: MAGEA6 WT (peptide)
chain: KISGGPRISYPLLHEWALREGEE
B24: the protein stability index (parent: IOH28024_53, c terminus: native) was found to be 2.93.

B25: ANKRD44 WT (peptide)
chain: FHCIETLVTTGANVNETDDWGRTA
Regarding B25, under “parent: IOH28621_76, c terminus: a fixed tail appended”, the protein stability index worked out at 1.99.

B26: DCAF4 WT (peptide)
chain: DSHILLCLMGLAETPGCATLLPAS
For B26, the protein stability index (parent: IOH28737_24, c terminus: a fixed tail appended) came out at 2.86.

B27: ZNF8 WT (peptide)
chain: RIHTGERPYMCKECGKAFSQNSSL
On to B27, for which the protein stability index (parent: IOH28719_47, c terminus: a fixed tail appended) turned out to be 2.6.
